The target of test [1] is Aβ1-42 peptide. Description: cell-based or functional assay.
Test [2] has as its target Aβ1-42 peptide. Description: cell-based or functional assay. The source holds these as a separate data set.

B1: H102 (peptide)
peptide: HKQLPFFEED
In the case of B1, the “T1/2, time point at which the ThT fluorescence intensity reaches the half-peak” value in test [1] came to 96 h. The “Inhibition (%) of Aβ1-42 aggregation and fibril formation, ThT fluorescence, 44.30 µmol/L peptide with 11.07 µmol/L Aβ1-42, 37° C., 24 h” value (“Inhibition (%)” for short) in test [2] came to 27.8%.

B2: H103 (peptide)
peptide: HQKLVFFAED
Consider B2, for which the “Inhibition (%)” value in test [2] worked out at 14.9%.

B3: H101 (peptide)
peptide: HKQLVFFEED
On to B3, for which, in test [2], the “Inhibition (%)” value came to 24.8%.

The record behind these values is patent US20110105404A1 (TIANJIN MEDICAL UNIVERSITY, published 2011).
